Target: NBS1 (UniProt O60934)
Assay: anti-Flag co-IP
Conditions: reference: wild-type Syk-Flag; sites T504

binding against the reference: lost
Substance: Syk (from UniProt P43405) Syk T504A

Source: paper PMC10275042
